Laboratory results taken from article PMC10117073.

Assays:
[1] = biological target: proGeh (glycerol ester hydrolase, pro form) (S. aureus); assay: SEC; analytical gel filtration column (HiLoad 13/300 Super 200); molecular weight estimated from a standard curve (thyroglobulin, ferritin, aldolase, conalbumin, ovalbumin, RNase A, aprotinin)
[2] = biological target: mature Geh (mGeh) (S. aureus); assay: as above

Substance	stoichiometry N [1]	stoichiometry N [2]
proGeh (glycerol ester hydrolase, pro form) (from UniProt A0A1R3UHM3 38-645) (enzyme)	2	
mature Geh (mGeh) (enzyme)		2
